Source: patent publication US8008542B2, “Compositions, cells, and plants that include BKI1, a negative regulator of BRI1-mediated BR signaling” (The Salk Institute for Biological Studies, priority 2007, dated 2011)

Molecular target: T1, endogenous BRI1 (Arabidopsis thaliana, UniProt O22476)
T1 construct: from tissue; host or cells: short-day grown seedlings of Col-0 transgenic plants expressing BKI1-FLAG
T1 sequence (O22476 24-1196): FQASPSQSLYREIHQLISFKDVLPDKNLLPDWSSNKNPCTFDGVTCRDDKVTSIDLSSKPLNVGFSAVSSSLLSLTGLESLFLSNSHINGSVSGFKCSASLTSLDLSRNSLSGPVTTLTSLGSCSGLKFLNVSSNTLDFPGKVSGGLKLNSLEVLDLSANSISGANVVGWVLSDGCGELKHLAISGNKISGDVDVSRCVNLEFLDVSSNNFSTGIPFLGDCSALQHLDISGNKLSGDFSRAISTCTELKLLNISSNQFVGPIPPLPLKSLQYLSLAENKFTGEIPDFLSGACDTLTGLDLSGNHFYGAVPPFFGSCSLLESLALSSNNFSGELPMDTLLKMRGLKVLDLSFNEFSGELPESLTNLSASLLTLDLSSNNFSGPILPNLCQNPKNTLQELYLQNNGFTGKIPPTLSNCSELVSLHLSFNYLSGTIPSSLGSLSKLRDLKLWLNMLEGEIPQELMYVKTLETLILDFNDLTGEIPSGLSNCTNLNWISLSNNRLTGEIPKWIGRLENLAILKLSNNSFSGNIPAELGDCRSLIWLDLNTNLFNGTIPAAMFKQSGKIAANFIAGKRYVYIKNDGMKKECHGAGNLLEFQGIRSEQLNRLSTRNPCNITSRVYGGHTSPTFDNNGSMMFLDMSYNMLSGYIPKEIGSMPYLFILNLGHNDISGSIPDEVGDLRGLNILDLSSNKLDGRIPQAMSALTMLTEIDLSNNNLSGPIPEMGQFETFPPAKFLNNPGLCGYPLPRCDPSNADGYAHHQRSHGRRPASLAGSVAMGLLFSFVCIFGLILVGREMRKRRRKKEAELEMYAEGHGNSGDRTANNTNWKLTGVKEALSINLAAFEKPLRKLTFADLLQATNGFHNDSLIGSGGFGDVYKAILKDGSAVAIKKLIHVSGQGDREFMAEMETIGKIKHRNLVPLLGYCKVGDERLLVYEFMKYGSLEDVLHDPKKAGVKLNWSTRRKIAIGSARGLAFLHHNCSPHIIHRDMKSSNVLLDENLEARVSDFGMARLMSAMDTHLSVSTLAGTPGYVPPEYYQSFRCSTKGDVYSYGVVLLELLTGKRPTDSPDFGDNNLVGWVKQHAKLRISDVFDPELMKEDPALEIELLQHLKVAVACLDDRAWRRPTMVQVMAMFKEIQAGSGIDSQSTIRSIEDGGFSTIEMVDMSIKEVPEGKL
Test: Immunoprecipitation from BKI1-FLAG plants
Assay type: binding
Conditions: immunoprecipitation with anti-FLAG
Description: Short-day grown seedlings of Col-0 and transgenic plants containing BKI1-FLAG were ground to a fine powder in liquid nitrogen, and solubilized with 2× extraction buffer (100 mM Tris-HCl pH 7.5, 300 mM NaCl, 2 mM EDTA, 1% Triton, 10% glycerol, and protease inhibitor). The extracts were centrifuged at 5,000×g for 10 min, and the resultant supernatant was then spun at 100,000×g for 90 min at 4° C. to remove membrane fractions. The supernatant was incubated with pre-washed anti-FLAG M2 agarose gel (Sigma) for three hours at 4° C., and the agarose gel was washed five times with TBS Buffer containing 0.02% Tween 20. The immunoprecipitates were eluted with 1×SDS sample buffer by boiling for 5 min, separated on a 4-20% Novex Tris-Glycine SDS-PAGE gel (Invitrogen), transferred to PVDF membrane (Millipore), and detected with either anti-BRI1 antibody for endogenous BRI1 or monoclonal anti-FLAG M2 (Sigma) for BKI1-FLAG. Signals were visualized using the Odyssey Infrared Imaging system (LI-COR Biosciences Inc.).

B1: BKI1-FLAG: BKI1 with three copies of FLAG fused at the C-terminal end (protein)
chain: METNLQQVKNSSQTFSEKQNPKQEASPSPISSTCSSPSHDFSFTISLQPLSSSSKHISPTLRSPSKTTSSYQQTDPFAVDLSPADEIFFHGHLLPLHLLSHLPVSPRTSTGSYNDGFTLPVKDILPDQPTNNNNNTENAITNISTEAKDDNTEDKAEGEIRVKTKPIKSFSLFGLSKWRKGFESNEREQEQQQQKIKKPMSLDLSHAVKKYIRMLFQKRGNGTQFWNRRQTSSYSFSSSLMGPNGNSKTMINGSYNKRDLIRGRRGELFSAPASMRTSPTNSGHLRVSTAGLSSSSGSTSSSSSDSTMEELQAAIQAAIAHCKNSSAVDRDDKVKDSDYKDDDDKVKLDYKDDDDKVKLDYKDDDDKVKL
interaction with endogenous BRI1 in vivo: interacted
